According to article PMC8207215:

Tests used:
[1] = target: recombinant human insulin-regulated aminopeptidase (IRAP), secreted soluble form (human) (UniProt Q9UIQ6); test: native gel or EMSA
[2] = target: recombinant human insulin-regulated aminopeptidase (IRAP), secreted soluble form (human) (UniProt Q9UIQ6); test: SEC
[3] = target: recombinant human insulin-regulated aminopeptidase (IRAP), secreted soluble form (human) (UniProt Q9UIQ6); test: enzyme inhibition assay

Molecule: recombinant human insulin-regulated aminopeptidase (IRAP), secreted soluble form (from UniProt Q9UIQ6 155-1025) (enzyme)
- stoichiometry N [1]: 2
- stoichiometry N [2]: 2

Molecule: VYPWT [peptide inhibitor VYPWT]
- Ki [3]: 98 nM
